The results in this text go back to patent US20260232800A1 (ADAPTIMMUNE, published 2026).

Sequences and labels used below:
B1: TCR 3 (ADB02780_025) (TCR, V domains shown)
V domain 1: GQQLNQSPQSMFIQEGEDVSMNCTSSSIFNTWLWYKQDPGEGPVLLIALYKAGELTSNGRLTAQFGITRKDSFLNISASIPSDVGIYFCAGQASGTYKYIFGTGTRLKVLA
V domain 2: EAQVTQNPRYLITVTGKKLTVTCSQNMNHEYMSWYRQDPGLGLRQIYYSINVEVTDKGDVPEGYKVSRKEKRNFPLILESPSPNQTSLYFCASSHGTSGEQYFGPGTRLTVT
B2: TCR 9 (ADB02780_107) (TCR, V domains shown)
V domain 1: GQQLNQSPQSMFIQEGEDVSMNCTSSSIFMTWLWYKQDPGEGPVLLIALYKAGELTSNGRLTAQFGITRKDSFLNISASIPSDVGIYFCAGQASGTYKYIFGTGTRLKVLA
V domain 2: EAQVTQNPRYLITVTGKKLTVTCSQNMNHEYMSWYRQDPGLGLRQIYYSINVEVTDKGDVPEGYKVSRKEKRNFPLILESPSPNQTSLYFCASSHGTSGEQYFGPGTRLTVT
B3: TCR 4 (ADB02780_062) (TCR, V domains shown)
V domain 1: GQQLNQSPQSMFIQEGEDVSMNCTSSSIFLTWLWYKQDPGEGPVLLIALYKAGELTSNGRLTAQFGITRKDSFLNISASIPSDVGIYFCAGQASGTYKYIFGTGTRLKVLA
V domain 2: EAQVTQNPRYLITVTGKKLTVTCSQNMNHEYMSWYRQDPGLGLRQIYYSINVEVTDKGDVPEGYKVSRKEKRNFPLILESPSPNQTSLYFCASSHGTSGEQYFGPGTRLTVT
B4: TCR 6 (ADB02780_070) (TCR, V domains shown)
V domain 1: GQQLNQSPQSMFIQEGEDVSMNCTSSSIFVTWLWYKQDPGEGPVLLIALYKAGELTSNGRLTAQFGITRKDSFLNISASIPSDVGIYFCAGQASGTYKYIFGTGTRLKVLA
V domain 2: EAQVTQNPRYLITVTGKKLTVTCSQNMNHEYMSWYRQDPGLGLRQIYYSINVEVTDKGDVPEGYKVSRKEKRNFPLILESPSPNQTSLYFCASSHGTSGEQYFGPGTRLTVT
B5: TCR 8 (ADB02780_106) (TCR, V domains shown)
V domain 1: GQQLNQSPQSMFIQEGEDVSMNCTSSSIFATWLWYKQDPGEGPVLLIALYKAGELTSNGRLTAQFGITRKDSFLNISASIPSDVGIYFCAGQASGTYKYIFGTGTRLKVLA
V domain 2: EAQVTQNPRYLITVTGKKLTVTCSQNMNHEYMSWYRQDPGLGLRQIYYSINVEVTDKGDVPEGYKVSRKEKRNFPLILESPSPNQTSLYFCASSHGTSGEQYFGPGTRLTVT
B6: TCR 5 (ADB02780_063) (TCR, V domains shown)
V domain 1: GQQLNQSPQSMFIQEGEDVSMNCTSSSIFETWLWYKQDPGEGPVLLIALYKAGELTSNGRLTAQFGITRKDSFLNISASIPSDVGIYFCAGQASGTYKYIFGTGTRLKVLA
V domain 2: EAQVTQNPRYLITVTGKKLTVTCSQNMNHEYMSWYRQDPGLGLRQIYYSINVEVTDKGDVPEGYKVSRKEKRNFPLILESPSPNQTSLYFCASSHGTSGEQYFGPGTRLTVT
B7: TCR 7 (ADB02780_077) (TCR, V domains shown)
V domain 1: GQQLNQSPQSMFIQEGEDVSMNCTSSSIFHTWLWYKQDPGEGPVLLIALYKAGELTSNGRLTAQFGITRKDSFLNISASIPSDVGIYFCAGQASGTYKYIFGTGTRLKVLA
V domain 2: EAQVTQNPRYLITVTGKKLTVTCSQNMNHEYMSWYRQDPGLGLRQIYYSINVEVTDKGDVPEGYKVSRKEKRNFPLILESPSPNQTSLYFCASSHGTSGEQYFGPGTRLTVT

The target of the experiment is complex of PRAME peptide … (SEQ ID NO: 1) and HLA-A*02:01, presented on peptide-pulsed T2 cells (human). Kind of experiment: cell-based or functional assay.
With B1, the “EC50 (peptide concentration required to induce half-maximal T-cell activation; IFNγ supernatant ELISA, transduced primary T cells with peptide-pulsed T2 cells)” value (“EC50” for short) was -7.8 log10 M.

For B2, the “EC50” value was -7.8 log10 M.

Regarding B3, the “EC50” value is -8.7 log10 M.

Turning to B4, the “EC50” value is -8.8 log10 M.

Turning to B5, the “EC50” value was -7.8 log10 M.

As for B6, the “EC50” value is -8.8 log10 M.

In the case of B7, the “EC50” value is -8.7 log10 M.
